In the experiment the target is T1, Recombinant Human TRAIL R2/TNFRSF10B Fc Chimera Protein (human, UniProt O14763 56-210).
T1 construct: TNFRSF10B (DR5, TRAIL R2), human, fused to Fc; also called rhDR5–Fc; DR5–Fc; source: bought: R&D Systems (631-T2)
As to the kind of experiment: SPR; Biacore T100; recombinant DR5 (R&D 631-T2-100) coupled to a CM5 chip in 10 mM sodium acetate pH 5.5; recombinant FasL or TRAIL passed over at 30 μL/min for 120 s; empty flow cell subtracted; equilibrium affinity measurements. The settings on record: both partners purified.

B1: recombinant human soluble Fas ligand (His-tagged) (ligand, UniProt P48023 130-281, looked up)
chain: QIGHPSPPPEKKELRKVAHLTGKSNSRSMPLEWEDTYGIVLLSGVKYKKGGLVINETGLYFVYSKVYFRGQSCNNLPLSHKVYMRNSKYPQDLVMMEGKMMSYCTTGQMWARSSYLGAVFNLTSADHLYVNVSELSLVNFEESQTFFGLYKL
notes: Fas ligand (TNFSF6), human, soluble recombinant form; also called sFasL; rhFasL; source: bought: R&D Systems (126-FL)
B1: the Kd was found to be 1.23 pM.

Usually Kd stands for the free concentration of one partner at which half of the binding sites on the other are occupied at equilibrium, for simple one-to-one binding.
